Laboratory results from patent US20230002480A1.

Key:
Assay in all cases: cell-based or functional assay
[1] = target: HIV-1 Env of pseudovirus TRO.11 (HIV-1)
[2] = target: HIV-1 Env of pseudovirus CNE53 (HIV-1)
[3] = target: HIV-1 Env of pseudovirus HIV-001428-2.42 (HIV-1)
[4] = target: HIV-1 Env of pseudovirus REJO4541.67 (HIV-1)
[5] = target: HIV-1 Env of pseudovirus 3365.v2.c2 (HIV-1)
[6] = target: HIV-1 Env of pseudovirus BJOX025000.01.1 (HIV-1)
[7] = target: HIV-1 Env of pseudovirus PVO.4 (HIV-1)
[8] = target: HIV-1 Env of pseudovirus HIV-0013095-2.11 (HIV-1)
[9] = target: HIV-1 Env of pseudovirus Q23.17 (HIV-1)
[10] = target: HIV-1 Env of pseudovirus Ce2010_F5 (HIV-1)
[11] = target: HIV-1 Env of pseudovirus C3347.c11 (HIV-1)
[12] = target: HIV-1 Env of pseudovirus 6244_13_B5_4576 (HIV-1)
[13] = target: HIV-1 Env of pseudovirus WEAU_d15_410_787 (HIV-1)
[14] = target: HIV-1 Env of pseudovirus BJOX028000.10.3 (HIV-1)
[15] = target: HIV-1 Env of pseudovirus CAAN5342.A2 (HIV-1)
[16] = target: HIV-1 Env of pseudovirus 1054_07_TC4_1499 (HIV-1)
[17] = target: HIV-1 Env of pseudovirus R3265.c06 (HIV-1)
[18] = target: HIV-1 Env of pseudovirus C1080.c03 (HIV-1)
[19] = target: HIV-1 Env of pseudovirus CNE8 (HIV-1)
[20] = target: HIV-1 Env of pseudovirus QH0692.42 (HIV-1)
[21] = target: HIV-1 Env of pseudovirus HIV-16845-2.22 (HIV-1)
[22] = target: HIV-1 Env of pseudovirus R1166.c01 (HIV-1)
[23] = target: HIV-1 Env of pseudovirus SC05_8C11_2344 (HIV-1)
[24] = target: HIV-1 Env of pseudovirus 6535.3 (HIV-1)
[25] = target: HIV-1 Env of pseudovirus 0260.v5.c36 (HIV-1)
[26] = target: HIV-1 Env of pseudovirus Ce1086_B2 (HIV-1)
[27] = target: HIV-1 Env of pseudovirus T278-50 (HIV-1)
[28] = target: HIV-1 Env of pseudovirus ZM247v1(Rev-) (HIV-1)
[29] = target: HIV-1 Env of pseudovirus BJOX010000.06.2 (HIV-1)
[30] = target: HIV-1 Env of pseudovirus Ce1172_H1 (HIV-1)
[31] = target: HIV-1 Env of pseudovirus Ce1176_A3 (HIV-1)
[32] = target: HIV-1 Env of pseudovirus Q769.d22 (HIV-1)
[33] = target: HIV-1 Env of pseudovirus ZM233M.PB6 (HIV-1)
[34] = target: HIV-1 Env of pseudovirus A07412M1.vrc12 (HIV-1)
[35] = target: HIV-1 Env of pseudovirus 3817.v2.c59 (HIV-1)
[36] = target: HIV-1 Env of pseudovirus 231966.c02 (HIV-1)
[37] = target: HIV-1 Env of pseudovirus MS208.A1 (HIV-1)

N49P7 (antibody)
neutralization IC50 [1]: 0.044 µg/mL
neutralization IC80 [1]: 0.16 µg/mL
neutralization MPI [1]: 100
neutralization IC50 [2]: 0.035 µg/mL
neutralization IC80 [2]: 0.124 µg/mL
neutralization MPI [2]: 100
neutralization IC50 [3]: 0.006 µg/mL
neutralization IC80 [3]: 0.02 µg/mL
neutralization MPI [3]: 100
neutralization IC50 [4]: 0.015 µg/mL
neutralization IC80 [4]: 0.049 µg/mL
neutralization MPI [4]: 100
neutralization IC50 [5]: 0.07 µg/mL
neutralization IC80 [5]: 0.186 µg/mL
neutralization MPI [5]: 100
neutralization IC50 [6]: 0.038 µg/mL
neutralization IC80 [6]: 0.236 µg/mL
neutralization MPI [6]: 100
neutralization IC50 [7]: 0.107 µg/mL
neutralization IC80 [7]: 0.365 µg/mL
neutralization MPI [7]: 100
neutralization IC50 [8]: 0.073 µg/mL
neutralization IC80 [8]: 0.253 µg/mL
neutralization MPI [8]: 100
neutralization IC50 [9]: 0.052 µg/mL
neutralization IC80 [9]: 0.21 µg/mL
neutralization MPI [9]: 100
neutralization IC50 [10]: 0.13 µg/mL
neutralization IC80 [10]: 0.547 µg/mL
neutralization MPI [10]: 100
neutralization IC50 [11]: 0.024 µg/mL
neutralization IC80 [11]: 0.067 µg/mL
neutralization MPI [11]: 100
neutralization IC50 [12]: 0.111 µg/mL
neutralization IC80 [12]: 0.386 µg/mL
neutralization MPI [12]: 100
neutralization IC50 [13]: 0.045 µg/mL
neutralization IC80 [13]: 0.117 µg/mL
neutralization MPI [13]: 100
neutralization IC50 [14]: 0.02 µg/mL
neutralization IC80 [14]: 0.123 µg/mL
neutralization MPI [14]: 100
neutralization IC50 [15]: 0.409 µg/mL
neutralization IC80 [15]: 1.21 µg/mL
neutralization MPI [15]: 100
neutralization IC50 [16]: 0.494 µg/mL
neutralization IC80 [16]: 2.31 µg/mL
neutralization MPI [16]: 100
neutralization IC50 [17]: 0.048 µg/mL
neutralization IC80 [17]: 0.282 µg/mL
neutralization MPI [17]: 100
neutralization IC50 [18]: 0.114 µg/mL
neutralization IC80 [18]: 0.765 µg/mL
neutralization MPI [18]: 100
neutralization IC50 [19]: 0.037 µg/mL
neutralization IC80 [19]: 0.125 µg/mL
neutralization MPI [19]: 100
neutralization IC50 [20]: 0.663 µg/mL
neutralization IC80 [20]: 2.41 µg/mL
neutralization MPI [20]: 100
neutralization IC50 [21]: 0.95 µg/mL
neutralization IC80 [21]: 3.94 µg/mL
neutralization MPI [21]: 100
neutralization IC50 [22]: 0.092 µg/mL
neutralization IC80 [22]: 0.313 µg/mL
neutralization MPI [22]: 100
neutralization IC50 [23]: 0.164 µg/mL
neutralization IC80 [23]: 0.403 µg/mL
neutralization MPI [23]: 100
neutralization IC50 [24]: 0.186 µg/mL
neutralization IC80 [24]: 0.598 µg/mL
neutralization MPI [24]: 100
neutralization IC50 [25]: 0.354 µg/mL
neutralization IC80 [25]: 0.884 µg/mL
neutralization MPI [25]: 100
neutralization IC50 [26]: 0.089 µg/mL
neutralization IC80 [26]: 0.568 µg/mL
neutralization MPI [26]: 100
neutralization IC50 [27]: 22.3 µg/mL
neutralization IC80 [27]: > 50 µg/mL
neutralization MPI [27]: 75
neutralization IC50 [28]: 0.062 µg/mL
neutralization IC80 [28]: 0.214 µg/mL
neutralization MPI [28]: 100
neutralization IC50 [29]: 0.085 µg/mL
neutralization IC80 [29]: 0.592 µg/mL
neutralization MPI [29]: 100
neutralization IC50 [30]: 8.5 µg/mL
neutralization IC80 [30]: 37.5 µg/mL
neutralization MPI [30]: 92
neutralization IC50 [31]: 0.204 µg/mL
neutralization IC80 [31]: 0.589 µg/mL
neutralization MPI [31]: 100
neutralization IC50 [32]: 0.025 µg/mL
neutralization IC80 [32]: 0.111 µg/mL
neutralization MPI [32]: 100
neutralization IC50 [33]: 0.226 µg/mL
neutralization IC80 [33]: 0.774 µg/mL
neutralization MPI [33]: 100

PGT151 (antibody)
IC50 [1]: > 50 µg/mL
IC80 [1]: > 50 µg/mL
IC50 [2]: > 50 µg/mL
IC80 [2]: > 50 µg/mL
IC50 [3]: 0.027 µg/mL
IC80 [3]: > 50 µg/mL
IC50 [4]: 0.018 µg/mL
IC80 [4]: 0.119 µg/mL
IC50, titer in TZM.bl cells [6]: > 50 µg/mL
IC80, titer in TZM.bl cells [6]: > 50 µg/mL
IC50 [7]: 0.017 µg/mL
IC80 [7]: > 50 µg/mL
IC50 [8]: > 50 µg/mL
IC80 [8]: > 50 µg/mL
IC50 [9]: 0.007 µg/mL
IC80 [9]: 0.045 µg/mL
IC50 [10]: > 50 µg/mL
IC80 [10]: > 50 µg/mL
IC50, titer in TZM.bl cells [11]: > 50 µg/mL
IC80, titer in TZM.bl cells [11]: > 50 µg/mL
IC50 [12]: > 50 µg/mL
IC80 [12]: > 50 µg/mL
IC50 [13]: 0.01 µg/mL
IC80 [13]: > 50 µg/mL
IC50, titer in TZM.bl cells [14]: > 50 µg/mL
IC80, titer in TZM.bl cells [14]: > 50 µg/mL
IC50 [15]: 0.005 µg/mL
IC80 [15]: 0.038 µg/mL
IC50 [16]: 0.008 µg/mL
IC80 [16]: 0.032 µg/mL
IC50, titer in TZM.bl cells [17]: > 50 µg/mL
IC80, titer in TZM.bl cells [17]: > 50 µg/mL
IC50, titer in TZM.bl cells [34]: 0.246 µg/mL
IC80, titer in TZM.bl cells [34]: > 50 µg/mL
IC50, titer in TZM.bl cells [18]: > 50 µg/mL
IC80, titer in TZM.bl cells [18]: > 50 µg/mL
IC50, titer in TZM.bl cells [19]: > 50 µg/mL
IC80, titer in TZM.bl cells [19]: > 50 µg/mL
IC50, titer in TZM.bl cells [35]: > 50 µg/mL
IC80, titer in TZM.bl cells [35]: > 50 µg/mL
IC50 [20]: 0.029 µg/mL
IC80 [20]: 0.522 µg/mL
IC50 [21]: > 50 µg/mL
IC80 [21]: > 50 µg/mL
IC50, titer in TZM.bl cells [22]: > 50 µg/mL
IC80, titer in TZM.bl cells [22]: > 50 µg/mL
IC50 [23]: 0.06 µg/mL
IC80 [23]: > 50 µg/mL
IC50 [24]: < 0.001 µg/mL
IC80 [24]: 0.012 µg/mL
IC50, titer in TZM.bl cells [36]: 0.025 µg/mL
IC80, titer in TZM.bl cells [36]: 0.183 µg/mL
IC50 [25]: 0.427 µg/mL
IC80 [25]: > 50 µg/mL
IC50 [26]: 2.65 µg/mL
IC80 [26]: > 50 µg/mL
IC50, titer in TZM.bl cells [27]: 0.13 µg/mL
IC80, titer in TZM.bl cells [27]: > 50 µg/mL
IC50 [37]: < 0.001 µg/mL
IC80 [37]: 0.003 µg/mL
IC50 [28]: 0.009 µg/mL
IC80 [28]: > 50 µg/mL
IC50, titer in TZM.bl cells [29]: > 50 µg/mL
IC80, titer in TZM.bl cells [29]: > 50 µg/mL
IC50 [30]: > 50 µg/mL
IC80 [30]: > 50 µg/mL
IC50 [31]: 0.006 µg/mL
IC80 [31]: 0.018 µg/mL
IC50 [32]: > 50 µg/mL
IC80 [32]: > 50 µg/mL
IC50 [33]: 0.027 µg/mL
IC80 [33]: 5.16 µg/mL
